From paper doi:10.1101/2025.11.15.688601, “A multiplexed approach for genetic screening of human cells by electron microscopy uncovers a critical effector of mitochondrial cristae shape” (bioRxiv, 2025)

Target: the molecule itself
Assay: SEC-MALS; about 10 mg/ml applied to Superdex 200 Increase 10/300 in PBS; DAWN HELEOS and Optilab T-rEX detectors

B1: Recombinant MISHA/FAM136A (sample of the SEC-MALS analysis) (natural protein)
chain: not shown
notes: human FAM136A/MISHA, Uniprot Q96C01, printed as 138 amino acids (the whole entry); tag removed before the assay; Applied at about 10 mg/ml; also called Mitochondrial-IMS membrane-SHApe-impacting protein; source: E. coli SHuffle, purified; tag cleaved in both
stoichiometry N: 2
